Measurements published in patent publication US20240261333A1 (published 2024).

Columns and labels:
Test in all cases: co-IP, anti-FLAG, lysate of cells with N-FLAG B3GNT2; mass spectrometry
SERBP1 = target: T1, SERBP1 (human, UniProt Q8NC51 2-408)
T1 construct: also called NP_001018077.1 (+1)
T1 sequence (looked up): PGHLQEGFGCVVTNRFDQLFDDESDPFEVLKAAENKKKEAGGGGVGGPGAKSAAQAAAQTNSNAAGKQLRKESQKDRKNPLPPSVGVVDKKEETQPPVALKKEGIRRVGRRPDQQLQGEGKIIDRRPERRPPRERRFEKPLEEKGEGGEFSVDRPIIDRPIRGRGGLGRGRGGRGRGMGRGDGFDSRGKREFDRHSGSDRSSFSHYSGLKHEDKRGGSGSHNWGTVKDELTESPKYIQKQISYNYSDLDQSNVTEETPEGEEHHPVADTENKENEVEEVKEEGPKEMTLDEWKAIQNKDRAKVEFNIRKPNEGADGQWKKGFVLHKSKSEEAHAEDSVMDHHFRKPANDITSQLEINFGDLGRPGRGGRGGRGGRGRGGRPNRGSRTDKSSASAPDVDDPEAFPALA
Method: (§1) Cells were plated in 10-cm cell culture dishes and grown to 60-80% confluency. For each condition, two biological replicates were harvested for co-IP. Cells were washed with PBS and 4 mL of lysis buffer (20 mM HEPES, 1% Triton X-100, 150 mM NaCl, 1 mM EDTA, and 10% glycerol) containing protease inhibitor cocktail was added. Cells were scraped and lysate was incubated at 4° C. under rotary agitation for 1 h. Lysate was centrifuged at 14,000×g for 10 min at 4° C. Supernatant was transferred to a new tube and an aliquot was taken as the input. […] For Western blots, 10 μg/mL Chicken Anti-FLAG (Aves labs ET-DY100) and IgY control (R&D Systems AB-101-C) antibodies were biotinylated (Thermo Fisher Scientific 90407) and added to the respective conditions. Lysates with antibodies were incubated at 4° C. under rotary agitation overnight. For each mL of lysate, 50 μL of Pierce Protein A/G Magnetic Beads (Mass spectrometry; Thermo Fisher Scientific 88803) or Pierce Streptavidin Magnetic Beads (Western blot; Thermo Fisher Scientific 88817) was washed twice with lysis buffer. Lysates with antibodies were added to the beads and incubated at 4° C. under rotary agitation for 4 h. Beads were washed with lysis buffer 3 times and resuspended in lysis buffer for storage.
(§2) Magnetic beads were resuspended in 100 mM Tris pH 7.8, reduced, alkylated and digested with trypsin at 37° ° C. overnight. This solution was subjected to solid phase extraction to concentrate the peptides and remove unwanted reagents followed by injection onto a Shimadzu HPLC with fraction collector. Eight fractions were collected and after concentration were injected on a Waters NanoAcquity HPLC equipped with a self-packed Aeris 3 μm C18 analytical column 0.075 mm by 20 cm, (Phenomenex). Peptides were eluted using standard reverse-phase gradients. The effluent from the column was analyzed using a Thermo Orbitrap Elite mass spectrometer (nanospray configuration) operated in a data dependent manner for 54 minutes. The resulting fragmentation spectra were correlated against the known database using Proteome Discover 1.4 (Thermo Fisher Scientific).

RPL4 = RPL4 (human, UniProt P36578 2-427)
Method: as §1, §2

KRT6B = target: T2, KRT6B (human, UniProt P04259 2-564)
T2 construct: also called NP_00546.2
T2 sequence (looked up): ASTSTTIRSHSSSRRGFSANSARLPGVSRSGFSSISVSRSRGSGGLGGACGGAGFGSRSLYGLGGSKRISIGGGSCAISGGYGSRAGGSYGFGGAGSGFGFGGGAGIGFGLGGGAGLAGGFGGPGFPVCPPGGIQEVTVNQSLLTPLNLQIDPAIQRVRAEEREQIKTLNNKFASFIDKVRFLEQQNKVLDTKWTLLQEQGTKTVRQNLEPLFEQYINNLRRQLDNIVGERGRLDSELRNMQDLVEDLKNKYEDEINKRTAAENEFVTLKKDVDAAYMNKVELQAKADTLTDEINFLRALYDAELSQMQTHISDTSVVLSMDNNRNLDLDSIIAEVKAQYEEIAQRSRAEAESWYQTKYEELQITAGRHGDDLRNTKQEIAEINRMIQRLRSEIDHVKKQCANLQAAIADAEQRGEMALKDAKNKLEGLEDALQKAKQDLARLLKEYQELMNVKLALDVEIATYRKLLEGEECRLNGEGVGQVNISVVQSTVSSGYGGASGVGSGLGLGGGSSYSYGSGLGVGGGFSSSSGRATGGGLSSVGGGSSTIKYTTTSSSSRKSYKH
Method: as §1, §2

RPL10 = RPL10 (human, UniProt P27635 2-214)
Method: as §1, §2

HADHB = target: T3, HADHB (human, UniProt P55084 34-474)
T3 construct: also called NP_000174.1 (+3)
T3 sequence (looked up): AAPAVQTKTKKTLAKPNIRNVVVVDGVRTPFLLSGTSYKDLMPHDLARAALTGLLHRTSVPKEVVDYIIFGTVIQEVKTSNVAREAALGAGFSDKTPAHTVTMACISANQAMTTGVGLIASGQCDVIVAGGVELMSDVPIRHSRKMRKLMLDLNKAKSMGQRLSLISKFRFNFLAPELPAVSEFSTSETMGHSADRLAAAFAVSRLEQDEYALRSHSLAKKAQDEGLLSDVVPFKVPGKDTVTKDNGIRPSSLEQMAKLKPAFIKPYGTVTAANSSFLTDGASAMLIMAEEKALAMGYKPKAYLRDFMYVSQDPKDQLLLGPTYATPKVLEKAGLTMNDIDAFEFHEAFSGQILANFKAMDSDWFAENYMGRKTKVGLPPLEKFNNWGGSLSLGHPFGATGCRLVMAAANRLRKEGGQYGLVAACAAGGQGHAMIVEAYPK
Method: as §1, §2

B1: N-terminal FLAG tagged B3GNT2 (enzyme, human, UniProt Q9NY97 1-397, looked up)
chain: MSVGRRRIKLLGILMMANVFIYFIMEVSKSSSQEKNGKGEVIIPKEKFWKISTPPEAYWNREQEKLNRQYNPILSMLTNQTGEAGRLSNISHLNYCEPDLRVTSVVTGFNNLPDRFKDFLLYLRCRNYSLLIDQPDKCAKKPFLLLAIKSLTPHFARRQAIRESWGQESNAGNQTVVRVFLLGQTPPEDNHPDLSDMLKFESEKHQDILMWNYRDTFFNLSLKEVLFLRWVSTSCPDTEFVFKGDDDVFVNTHHILNYLNSLSKTKAKDLFIGDVIHNAGPHRDKKLKYYIPEVVYSGLYPPYAGGGGFLYSGHLALRLYHITDQVHLYPIDDVYTGMCLQKLGLVPEKHKGFRTFDIEEKNKNNICSYVDLMLVHSRKPQEMIDIWSQLQSAHLKC
notes: Overexpressed in cells and pulled down from the lysate with mouse anti-FLAG antibody; also called N-FLAG B3GNT2; N-term FLAG; not shown: N-terminal FLAG tag
B1 was tested, and the “co-IP mass spectrometry count” value (SERBP1) was 0, the “co-IP mass spectrometry count” value (RPL4) was 15 and the “co-IP mass spectrometry count” value (KRT6B) was 370. The “co-IP mass spectrometry count” value (RPL10) was 4 and the “co-IP mass spectrometry count” value (HADHB) was 0.
